We go through one molecule from article PMC9381540, “USP21 promotes self-renewal and tumorigenicity of mesenchymal glioblastoma stem cells by deubiquitinating and stabilizing FOXD1” (Cell Death & Disease, 2022).

Residue numbers refer to the chain shown, from its start.

Assay [1] addresses T1, Flag-USP21 WT (ubiquitin-specific peptidase 21) (human, UniProt Q9UK80 1-565).
T1 construct: ubiquitin-specific peptidase 21 (USP21), wild type; overexpression plasmid bought from GeneChem; source: HEK293T, transfected, in lysate (co-IP); for the GST pull-down 'lysed from HEK293T cells' (methods), 'purified recombinant protein' (results)
T1 sequence (looked up): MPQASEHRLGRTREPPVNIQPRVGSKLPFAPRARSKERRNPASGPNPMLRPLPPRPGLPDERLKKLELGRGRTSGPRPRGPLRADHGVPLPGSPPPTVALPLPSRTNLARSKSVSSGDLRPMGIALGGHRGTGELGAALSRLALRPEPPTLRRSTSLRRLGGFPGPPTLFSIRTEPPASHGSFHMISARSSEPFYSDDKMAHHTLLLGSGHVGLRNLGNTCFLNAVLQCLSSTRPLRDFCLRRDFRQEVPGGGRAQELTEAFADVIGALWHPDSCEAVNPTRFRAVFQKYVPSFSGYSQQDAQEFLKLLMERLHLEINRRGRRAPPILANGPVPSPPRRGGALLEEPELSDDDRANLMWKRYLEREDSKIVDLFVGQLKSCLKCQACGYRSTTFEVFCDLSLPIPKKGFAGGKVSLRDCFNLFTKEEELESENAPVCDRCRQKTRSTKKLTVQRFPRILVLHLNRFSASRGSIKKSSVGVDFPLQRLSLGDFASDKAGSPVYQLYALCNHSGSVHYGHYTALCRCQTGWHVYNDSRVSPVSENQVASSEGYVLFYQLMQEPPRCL
Kind of assay: pull-down; bacterially expressed GST or GST-FOXD1 immobilised (GST Protein Interaction Pull-Down Kit, Thermo Scientific), incubated with Flag-USP21 WT or C221A from HEK293T cells; analysed by Coomassie Brilliant Blue. The note with it: both partners purified.

Assay [2] deals with T2, Flag-USP21 C221A (catalytically inactive mutant) (human, UniProt Q9UK80 1-565, C221A).
T2 construct: also called C221A mutant; source: HEK293T, transfected, in lysate (co-IP); for the GST pull-down 'lysed from HEK293T cells' (methods), 'purified recombinant protein' (results)
T2 sequence (looked up): T1 sequence (looked up) with C221A
Described as above. The following applies: both partners purified.

B1: GST-FOXD1 (natural protein, UniProt Q16676 1-465, looked up)
chain: MTLSTEMSDASGLAEETDIDVVGEGEDEEDEEEEDDDEGGGGGPRLAVPAQRRRRRRSYAGEDELEDLEEEEDDDDILLAPPAGGSPAPPGPAPAAGAGAGGGGGGGGAGGGGSAGSGAKNPLVKPPYSYIALITMAILQSPKKRLTLSEICEFISGRFPYYREKFPAWQNSIRHNLSLNDCFVKIPREPGNPGKGNYWTLDPESADMFDNGSFLRRRKRFKRQPLLPPNAAAAESLLLRGAGAAGGAGDPAAAAALFPPAPPPPPHAYGYGPYGCGYGLQLPPYAPPSALFAAAAAAAAAAAFHPHSPPPPPPPHGAAAELARTAFGYRPHPLGAALPGPLPASAAKAGGPGASALARSPFSIESIIGGSLGPAAAAAAAAQAAAAAQASPSPSPVAAPPAPGSSGGGCAAQAAVGPAAALTRSLVAAAAAAASSVSSSAALGTLHQGTALSSVENFTARISNC
notes: Forkhead box D1 (FOXD1) fused to GST; also called immobilized GST-FOXD1; purified GST-FOXD1; source: bacterially expressed; 'purified' (results)
As to B1, the binding result in assay [1] and in assay [2] was “binds” each time.
